From patent US10005846 (LIFEARC, dated 2018)
Changes are numbered by the printed parent chain. Values belong to the binder of their own block, whether it stands above or below them.

Assays:
[1] = target: T1, human transglutaminase type 2 (TG2) (human, UniProt P21980 1-687); experiment: ELISA on immobilised human TG2; r2 0.9968; EC50 95% confidence range 0.2890 to 0.4002 [panel A]
T1 construct: Recombinant full-length human TG2 (Zedira; cat; T002 in the Biacore work); Also used here for the endogenous TG2 of HepG2 lysate and HK-2 cells; also called hTG2; rhTG2
T1 sequence: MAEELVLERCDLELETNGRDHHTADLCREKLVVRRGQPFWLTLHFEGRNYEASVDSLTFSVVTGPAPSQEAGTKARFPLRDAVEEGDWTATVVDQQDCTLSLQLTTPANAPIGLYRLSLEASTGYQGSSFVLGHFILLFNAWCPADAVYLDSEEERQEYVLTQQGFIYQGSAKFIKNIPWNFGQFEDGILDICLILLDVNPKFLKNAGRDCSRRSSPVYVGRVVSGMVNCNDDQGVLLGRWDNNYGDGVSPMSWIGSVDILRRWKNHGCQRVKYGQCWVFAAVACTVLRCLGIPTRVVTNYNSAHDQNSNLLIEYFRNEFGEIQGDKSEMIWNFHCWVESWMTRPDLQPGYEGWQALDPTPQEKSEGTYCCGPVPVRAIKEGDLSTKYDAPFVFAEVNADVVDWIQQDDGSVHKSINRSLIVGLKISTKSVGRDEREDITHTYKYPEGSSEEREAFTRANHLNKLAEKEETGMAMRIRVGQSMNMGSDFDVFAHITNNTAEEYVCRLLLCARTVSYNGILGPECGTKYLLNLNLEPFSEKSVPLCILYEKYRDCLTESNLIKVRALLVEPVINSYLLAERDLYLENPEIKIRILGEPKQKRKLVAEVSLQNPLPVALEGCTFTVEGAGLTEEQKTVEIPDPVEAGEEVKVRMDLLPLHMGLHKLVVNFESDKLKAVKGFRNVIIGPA
Experimental: Antibody binding to human and cynomolgus monkey TG2 was determined in an ELISA assay. Clear polystyrene "Maxisorp" 96-well plates (Nunc) were coated with 50 ng purified human or cynomogulus monkey TG2 in 50 µl 0.05 M carbonate-bicarbonate buffer pH 9.6 at 4° C. overnight. Control wells were coated with 50 µl 100 µg/ml bovine serum albumin (BSA). Plates were washed 3× with 300 µl phosphate-buffered saline pH7.4 (PBS) containing 0.1% Tween 20 (PBST) and blocked with 300 µl 3% w/v Marvel skimmed milk in PBS for 1 hour at room temperature. After 3× wash with PBST, 50 µl protein-A purified chimeric or humanised anti-TG2 antibodies or human IgG1 kappa […] control antibody or CUB7402 (Abcam) were serially diluted 4-fold from a top concentration of 50 nM in PBS, and added to the plate in duplicate. […] After 3× washes with PBST, the plates were developed with 50 µl TMB substrate (Sigma) for 5 min at room temperature before stopping the reaction with 25 µl 0.5M H2SO4 and reading absorbance at 450 nm in a microtiter plate reader (BioTek EL808). Dose response curves were analysed and EC50 values and other statistical parameters determined using a 4-parameter logistical fit of the data (GraphPad Prism).

[2] = target: T1, human transglutaminase type 2 (TG2); experiment: cell-based or functional assay
[3] = target: T1, human transglutaminase type 2 (TG2); experiment: cell-based or functional assay; remark: listed apart in the source

- EC50 [1]: 0.34 nM
- IC50 of enzymatic inhibition, dansylated lysine incorporation into N,N-dimethylated casein [continued), panel E] [2]: 829 nM
B1: cDH001 chimeric antibody (murine DH2 variable regions) (antibody, human IgG1, V domains shown)
VH: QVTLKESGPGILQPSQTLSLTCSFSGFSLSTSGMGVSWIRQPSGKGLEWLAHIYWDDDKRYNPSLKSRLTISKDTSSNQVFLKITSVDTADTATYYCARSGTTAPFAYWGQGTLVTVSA
VL: QIVLTQSPAIMSASPGEKVTMTCSASSSVSYMYWYQQKPGSSPRLLIYDTSNLASGVPVRFSGSGSGTSYSLTISRMEAEDAATFYCQQWSSSPLTFGAGTKLELK

- IC50 of enzymatic inhibition, dansylated lysine incorporation into N,N-dimethylated casein [continued), panel D] [3]: 172 nM
B2: cDD9001 chimeric antibody (murine DD9 variable regions) (antibody, human IgG1, V domains shown)
VH: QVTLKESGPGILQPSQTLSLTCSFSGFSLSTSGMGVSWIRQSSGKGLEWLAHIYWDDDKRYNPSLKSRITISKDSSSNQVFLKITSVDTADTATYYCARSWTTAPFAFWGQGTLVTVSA
VL: B1 VL with S30D, E78G, F85Y, S91N
